Data from article PMC5780489.

What was measured:
[1] = target: PABPC1ΔLt2 (residues 1-420, 471-636) (human) (UniProt P11940)
[2] = target: poly(A)-binding protein C1 (PABPC1), full length human (human) (UniProt P11940)

Chain of poly(A)-binding protein C1 (PABPC1), full length human (P11940 whole entry): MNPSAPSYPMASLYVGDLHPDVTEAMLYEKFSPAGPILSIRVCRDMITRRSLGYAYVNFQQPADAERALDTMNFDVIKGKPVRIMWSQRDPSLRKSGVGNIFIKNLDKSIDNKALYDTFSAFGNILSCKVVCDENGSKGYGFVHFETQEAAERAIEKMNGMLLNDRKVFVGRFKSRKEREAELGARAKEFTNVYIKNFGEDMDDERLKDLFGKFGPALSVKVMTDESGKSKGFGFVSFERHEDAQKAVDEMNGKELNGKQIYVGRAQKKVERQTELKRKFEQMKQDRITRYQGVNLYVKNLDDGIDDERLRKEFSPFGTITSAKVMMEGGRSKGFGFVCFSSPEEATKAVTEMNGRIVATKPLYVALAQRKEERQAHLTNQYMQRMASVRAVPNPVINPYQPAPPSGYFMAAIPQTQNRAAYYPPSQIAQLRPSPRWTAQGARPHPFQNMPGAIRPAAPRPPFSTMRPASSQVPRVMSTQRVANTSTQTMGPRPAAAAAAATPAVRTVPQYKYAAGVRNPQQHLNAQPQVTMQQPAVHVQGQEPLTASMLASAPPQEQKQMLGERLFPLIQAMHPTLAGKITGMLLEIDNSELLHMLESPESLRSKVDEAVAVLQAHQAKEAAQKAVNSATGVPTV

translation of capped luciferase mRNA with poly(A) in PABPC1-depleted rabbit reticulocyte lysate after adding 10 nM purified protein; fold enhancement over depleted lysate [1]	translation of capped luciferase mRNA with poly(A) in PABPC1-depleted rabbit reticulocyte lysate after adding 10 nM purified protein; fold enhancement over depleted lysate [2]	Substance
1.7 fold	–	PABPC1ΔLt2 (residues 1-420, 471-636) (from UniProt P11940 1-636) (natural protein)
–	2.5 fold	poly(A)-binding protein C1 (PABPC1), full length human (from UniProt P11940 1-636) (natural protein)
